Assay results: patent US20230002466A1 (ELPIS BIOPHARMACEUTICALS, published 2023)

Legend:
human IL2Rα [1] = target: T1, human IL2Rα (human, UniProt P01589 22-213, limits assumed); experiment: ELISA, receptor coated, anti-human Fc HRP
T1 construct: also called IL2α; CD25
T1 sequence (looked up): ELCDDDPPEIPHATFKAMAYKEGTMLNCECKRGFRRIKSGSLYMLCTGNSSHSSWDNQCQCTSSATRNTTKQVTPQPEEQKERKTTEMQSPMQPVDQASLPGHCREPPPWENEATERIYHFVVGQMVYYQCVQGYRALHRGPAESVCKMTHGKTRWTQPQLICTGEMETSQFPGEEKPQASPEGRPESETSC
Description: (§1) For bivalent Fc-fusion proteins, human IL2Rα, and human IL2Rβ were each immobilized in a 384 well plate at final concentration of 2 μg/mL in 1×PBS in total volume of 25 μL per well. The plate was incubated overnight at 4° C. followed by blocking with 80 μL of superblock per well for 1 hour. The purified engineered IL2 mutant Fc fusion protein at 100 nM was 3-fold serial diluted 12 times. Each dilution was added to IL2Rα and IL2Rβ wells in parallel. The engineered IL2 mutant binding was detected by adding 50 μL of anti-human Fc HRP diluted at 1:5000 in 1×PBST. In between each step, the plate was washed 3 times with 1×PBST in a plate washer. The plate was then developed with 25 μl of TMB substrate for 5 mins and stopped by adding 25 μl of 2N sulfuric acid. The plate was read at OD450 nm Biotek plate reader and the EC50 was analyzed with Prism 8.1 software.

human IL2Rβ [2] = target: T2, human IL2Rβ (human, UniProt P14784 27-239); experiment: ELISA, receptor coated, anti-human Fc HRP
T2 construct: also called IL2β; CD122
T2 sequence (looked up): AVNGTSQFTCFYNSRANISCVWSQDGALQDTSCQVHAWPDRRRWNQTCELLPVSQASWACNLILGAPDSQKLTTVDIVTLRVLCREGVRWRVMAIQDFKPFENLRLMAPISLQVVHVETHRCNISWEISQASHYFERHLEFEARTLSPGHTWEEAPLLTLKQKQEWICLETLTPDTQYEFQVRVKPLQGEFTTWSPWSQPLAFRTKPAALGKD
Description: as §1

human IL2Rα [3] = target: T1, human IL2Rα; experiment: SPR, receptor captured on Protein A chip, E. coli-produced IL2
Description: (§2) The assay was run with Biacore T200 control software version 2.0. For each cycle, 1 μg/mL of human IL2Rβ or IL2Rα was captured for 60 seconds at flow rate of 10 μL/min on flow cell 2 in 1×HBST buffer on Protein A sensor chip. Two-fold serial diluted HIS tag purified engineered IL2 mutant was injected onto both reference flow cell 1 and IL2Rβ or IL2Rα captured flow cell 2 for 150 seconds at flow rate of 30 μL/min followed by washing for 300 seconds. The flow cells were then regenerated with Glycine pH 2 for 40 seconds at a flow rate of 30 μL/mins. Eight concentration points from 0 to 100 nM were assayed for each IL2Rβ agonist clone 96-well plate format. The kinetics data was analyzed with Biacore T200 evaluation software 3000. The specific binding response unit was derived from subtraction of binding to reference flow cell 1 from target flow cell 2.

human IL2Rβ [4] = target: T2, human IL2Rβ; experiment: as above
Description: as §2

Row | Binder | EC50 (human IL2Rα [1]) [nM] | relative activity IL2Rα (EC50: fold) against EP085 (human IL2Rα [1]) [fold] | EC50 (human IL2Rβ [2]) [nM] | relative activity IL2Rβ (EC50: fold) against EP085 (human IL2Rβ [2]) [fold] | Kd (human IL2Rα [3]) [nM] | relative activity IL2Rα (KD: fold) against WT IL2 (human IL2Rα [3]) [fold] | Kd (human IL2Rβ [4]) [nM] | koff (human IL2Rβ [4]) [s⁻¹] | kon (human IL2Rβ [4]) [M⁻¹ s⁻¹] | relative activity IL2Rβ (KD: fold) against WT IL2 (human IL2Rβ [4]) [fold]
1 | EP080 (Fc fusion) APTSSSTKETQLQLKHLLLDLQMILNGINNYKNPKLTRMLTFKFYMPKKATELKHLQCLEEELKPLEEVLNLAQSKNFHLKWGDAVSNARVLAGALKGSETTFMCEYADETATIVEFLNRWITFCQSIISTLTEPKSCDKTHTCPLCPAPEAAGGPSVFLFPPKPKDTLMISRTPEVTCVVVDVSHEDPEVKFNWYVDGVEVHNAKTKPREEQYNSTYRVVSVLTVLHQDWLNGKEYKCKVSNKALGAPIEKTISKAKGQPREPQVYTLPPSRDELTKNQVSLTCLVKGFYPSDIAVEWESNGQPENNYKATPPVLDSDGSFFLYSKLTVDKSRWQQGNVFSCSVMHEALHNHYTQKSLSLSPGK | 0.056 | -1.17 | 0.23 | 1280 |  |  |  |  |  | 
2 | EP002 (ligand, also called E002; not shown: C-terminal Flag and 6xHis tags) APTSSSTKKTQLQLEHLLLDLQMILNGINNYKNPKLTRMLTFKFYMPKKATELKHLQCLEEELKPLEEVLNLAQSKNFHLEPSDVISNINVLVQELKGSETTFMCEYADETATIVEFLNRWITFCQSIISTLT |  |  |  |  | 101 | -10.6 | 2.37 | 0.00273 | 1.15e+06 | 1830
3 | EP005 (ligand, not shown: C-terminal Flag and 6xHis tags) APTSSSTKKTQLQLEHLLLDLQMILNGINNYKNPKLTRMLTFKFYMPKKATELKHLQCLEEELKPLEEVLNLAQSKNFHLTAEDVVTNITVLVQELKGSETTFMCEYADETATIVEFLNRWITFCQSIISTLT |  |  |  |  | 12.6 | -1.3 | 0.885 | 0.0054 | 6.1e+06 | 4910
4 | EP006 (ligand, also called EPIM-06; not shown: C-terminal Flag and 6xHis tags) APTSSSTKKTQLQLEHLLLDLQMILNGINNYKNPKLTRMLTFKFYMPKKATELKHLQCLEEELKPLEEVLNLAQSKNFHLGVGDTIDNINVLVKELKGSETTFMCEYADETATIVEFLNRWITFCQSIISTLT |  |  |  |  | 481 | -50.6 | 3.1 | 0.00254 | 819000 | 1400
5 | EP081 (Fc fusion) ATPTSSSTKKTQLQLEHLLLDLQMILNGINNYKNPKLTRMLTFKFYMPKKATELKHLQCLEEELKPLEEVLNLAQSKNFHLGVGDTIDNINVLVKELKGSETTFMCEYADETATIVEFLNRWITFCQSIISTLTEPKSCDKTHTCPLCPAPEAAGGPSVFLFPPKPKDTLMISRTPEVTCVVVDVSHEDPEVKFNWYVDGVEVHNAKTKPREEQYNSTYRVVSVLTVLHQDWLNGKEYKCKVSNKALGAPIEKTISKAKGQPREPQVYTLPPSRDELTKNQVSLTCLVKGFYPSDIAVEWESNGQPENNYKATPPVLDSDGSFFLYSKLTVDKSRWQQGNVFSCSVMHEALHNHYTQKSLSLSPGK | 0.087 | -1.73 | 0.2 | 1530 |  |  |  |  |  | 
6 | EP001-Fc, Bivalent (EP079) (Fc fusion, Human IgG1 with L234A, L235A, P329G) APTSSSTKKTQLQLEHLLLDLQMILNGINNYKNPKLTRMLTFKFYMPKKATELKHLQCLEEELKPLEEVLNLAQSKNFHLTARDAVDNMRVIIQELKGSETTFMCEYADETATIVEFLNRWITFCQSIISTLTEPKSCDKTHTCPLCPAPEAAGGPSVFLFPPKPKDTLMISRTPEVTCVVVDVSHEDPEVKFNWYVDGVEVHNAKTKPREEQYNSTYRVVSVLTVLHQDWLNGKEYKCKVSNKALGAPIEKTISKAKGQPREPQVYTLPPSRDELTKNQVSLTCLVKGFYPSDIAVEWESNGQPENNYKATPPVLDSDGSFFLYSKLTVDKSRWQQGNVFSCSVMHEALHNHYTQKSLSLSPGK | 0.64 | -12.7 | 0.41 | 727 |  |  |  |  |  | 
7 | EP003-Fc, Bivalent (EP082) (Fc fusion, Human IgG1 with L234A, L235A, P329G) APTSSSTKKTQLQLEHLLLDLQMILNGINNYKNPKLTRMLTFKFYMPKKATELKHLQCLEEELKPLEEVLNLAQSKNFHLGVTDSISNAIVLARELKGSETTFMCEYADETATIVEFLNRWITFCQSIISTLTEPKSCDKTHTCPLCPAPEAAGGPSVFLFPPKPKDTLMISRTPEVTCVVVDVSHEDPEVKFNWYVDGVEVHNAKTKPREEQYNSTYRVVSVLTVLHQDWLNGKEYKCKVSNKALGAPIEKTISKAKGQPREPQVYTLPPSRDELTKNQVSLTCLVKGFYPSDIAVEWESNGQPENNYKATPPVLDSDGSFFLYSKLTVDKSRWQQGNVFSCSVMHEALHNHYTQKSLSLSPGK | 0.028 | 1.78 | 0.25 | 1190 |  |  |  |  |  | 
8 | EP004-Fc, Bivalent (EP078) (Fc fusion, Human IgG1 with L234A, L235A, P329G) APTSSSTKKTQLQLEHLLLDLQMILNGINNYKNPKLTRMLTFKFYMPKKATELKHLQCLEEELKPLEEVLNLAQSKNFHLCPTDTIENITVLIQELKGSETTFMCEYADETATIVEFLNRWITFCQSIISTLTEPKSCDKTHTCPLCPAPEAAGGPSVFLFPPKPKDTLMISRTPEVTCVVVDVSHEDPEVKFNWYVDGVEVHNAKTKPREEQYNSTYRVVSVLTVLHQDWLNGKEYKCKVSNKALGAPIEKTISKAKGQPREPQVYTLPPSRDELTKNQVSLTCLVKGFYPSDIAVEWESNGQPENNYKATPPVLDSDGSFFLYSKLTVDKSRWQQGNVFSCSVMHEALHNHYTQKSLSLSPGK | 0.041 | 1.24 | 2.1 | 142 |  |  |  |  |  | 
9 | EP083 (Fc fusion) APTSSSTKKTQLQLEHLLLDLQMILNGINNYKNPKLTEMLTFKFYMPKKATELKHLQCLEEELKPLEEVLNLAQSKNFHLEPSDVISNINVLVQELKGSETTFMCEYADETATIVEFLNRWITFCQSIISTLTEPKSCDKTHTCPLCPAPEAAGGPSVFLFPPKPKDTLMISRTPEVTCVVVDVSHEDPEVKFNWYVDGVEVHNAKTKPREEQYNSTYRVVSVLTVLHQDWLNGKEYKCKVSNKALGAPIEKTISKAKGQPREPQVYTLPPSRDELTKNQVSLTCLVKGFYPSDIAVEWESNGQPENNYKATPPVLDSDGSFFLYSKLTVDKSRWQQGNVFSCSVMHEALHNHYTQKSLSLSPGK | 0.046 | 1.09 | 0.28 | 1080 |  |  |  |  |  | 
10 | EP084 (Fc fusion) APTSSSTKKTQLQLEHLLLDLQMILNGINNYKNPKLTRMLTFKFYMPKKATELKHLQCLEEELKPLEEVLNLAQSKNFHLTAEDVVTNITVLVQELKGSETTFMCEYADETATIVEFLNRWITFCQSIISTLTEPKSCDKTHTCPLCPAPEAAGGPSVFLFPPKPKDTLMISRTPEVTCVVVDVSHEDPEVKFNWYVDGVEVHNAKTKPREEQYNSTYRVVSVLTVLHQDWLNGKEYKCKVSNKALGAPIEKTISKAKGQPREPQVYTLPPSRDELTKNQVSLTCLVKGFYPSDIAVEWESNGQPENNYKATPPVLDSDGSFFLYSKLTVDKSRWQQGNVFSCSVMHEALHNHYTQKSLSLSPGK | 0.041 | 1.23 | 2.6 | 117 |  |  |  |  |  | 
